# Results published in patent US20060014680A1, “Peptides and compounds that bind to the IL-5 receptor” (priority 2004, published 2006).
# Positions of bridges follow the written chain, without caps; N, C: chain ends.
# T1: human IL-5Rα extracellular domain harvest with a MAb 179 epitope tag (human, UniProt Q01344 21-342)
# T1 construct: extracellular domain; Captured on MAb179-conjugated AlphaScreen acceptor beads; also called IL-5 receptor; IL-5R-α chain ECD
# T1 sequence (looked up): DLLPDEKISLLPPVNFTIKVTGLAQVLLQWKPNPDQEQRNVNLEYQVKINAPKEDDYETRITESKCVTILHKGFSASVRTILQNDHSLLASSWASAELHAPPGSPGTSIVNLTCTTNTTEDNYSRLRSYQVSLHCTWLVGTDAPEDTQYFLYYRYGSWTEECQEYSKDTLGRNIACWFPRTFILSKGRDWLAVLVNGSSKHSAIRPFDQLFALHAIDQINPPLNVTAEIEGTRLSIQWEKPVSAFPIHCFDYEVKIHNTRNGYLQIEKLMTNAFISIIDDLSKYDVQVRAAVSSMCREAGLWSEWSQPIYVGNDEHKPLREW
# T2: human IL-5Rα extracellular domain (Homo sapiens, UniProt Q01344)
# T2 construct: human IL-5Rα extracellular domain harvest; made in house; host or cells: CHO cells
# T2 sequence (Q01344 21-342 limits assumed): T1 sequence (looked up)
# T3: human IL-5 receptor (Homo sapiens, UniProt P32927+Q01344)
# T3 construct: endogenous in cells; host or cells: HL60 subclone induced towards eosinophil differentiation with sodium butyrate
# T3 sequence (Q01344 21-420): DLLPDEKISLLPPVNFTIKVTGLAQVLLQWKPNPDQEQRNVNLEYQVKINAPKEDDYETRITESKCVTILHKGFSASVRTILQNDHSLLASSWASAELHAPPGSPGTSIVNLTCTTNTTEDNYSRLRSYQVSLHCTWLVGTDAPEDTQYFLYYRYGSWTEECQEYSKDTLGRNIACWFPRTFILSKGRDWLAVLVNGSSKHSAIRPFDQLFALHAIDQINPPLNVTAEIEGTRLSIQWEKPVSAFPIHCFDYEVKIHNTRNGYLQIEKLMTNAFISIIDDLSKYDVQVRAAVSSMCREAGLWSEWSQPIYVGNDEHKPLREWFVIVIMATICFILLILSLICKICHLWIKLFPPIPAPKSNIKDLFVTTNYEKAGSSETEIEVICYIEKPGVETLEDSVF
# T3 sequence (P32927 17-897): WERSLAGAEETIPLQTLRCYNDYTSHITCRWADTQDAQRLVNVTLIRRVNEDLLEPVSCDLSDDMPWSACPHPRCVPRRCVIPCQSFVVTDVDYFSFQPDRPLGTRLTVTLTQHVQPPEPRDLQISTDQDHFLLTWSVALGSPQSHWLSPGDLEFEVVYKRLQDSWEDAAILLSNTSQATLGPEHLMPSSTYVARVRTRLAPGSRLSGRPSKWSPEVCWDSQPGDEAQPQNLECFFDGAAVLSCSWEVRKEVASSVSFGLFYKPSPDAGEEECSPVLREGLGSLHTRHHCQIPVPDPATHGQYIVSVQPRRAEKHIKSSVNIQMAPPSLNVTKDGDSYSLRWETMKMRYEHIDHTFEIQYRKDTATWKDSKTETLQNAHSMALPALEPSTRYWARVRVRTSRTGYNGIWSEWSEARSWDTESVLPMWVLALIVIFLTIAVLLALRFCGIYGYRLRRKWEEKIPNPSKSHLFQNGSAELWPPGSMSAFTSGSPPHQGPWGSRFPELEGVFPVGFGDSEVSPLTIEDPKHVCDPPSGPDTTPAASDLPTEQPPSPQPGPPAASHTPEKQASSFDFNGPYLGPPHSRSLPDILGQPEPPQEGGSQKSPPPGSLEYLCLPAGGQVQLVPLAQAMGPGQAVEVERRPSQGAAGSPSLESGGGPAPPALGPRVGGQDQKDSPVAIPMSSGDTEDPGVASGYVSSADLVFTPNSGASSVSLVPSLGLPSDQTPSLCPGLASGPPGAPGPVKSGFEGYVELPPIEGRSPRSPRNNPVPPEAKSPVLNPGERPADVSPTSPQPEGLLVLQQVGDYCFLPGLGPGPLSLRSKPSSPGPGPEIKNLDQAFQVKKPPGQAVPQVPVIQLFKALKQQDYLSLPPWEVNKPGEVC
# Molecular target: T1, human IL-5Rα extracellular domain …
# Test: alanine scan of AF17121, AlphaQuest competition binding assay on human IL-5Rα ECD with the tracer biotinylated MBP-AF12368 (the assay is named by FIG. 1, not by the sentence)
# Settings: not given
# Experimental: The affinity of compounds for the IL-5 receptor was tested in a homogeneous Alpha Quest binding assay. The peptides tested were solubilized at approximately 10 mM in DMSO. Each peptide was then serially diluted into freshly made, sterile filtered assay buffer (40 mM Hepes, pH 7.4 with NaOH, containing 1 mM MgCl₂, 0.1% BSA and 0.05% Tween-20). Four microliters of each test compound dilution was transferred in triplicate to a 384-well, low volume, white, polypropylene Griener plate (E&K Scientific #31075). A mixture was prepared in assay buffer containing Packard Bioscience AlphaScreen streptavidin coated donor beads at […], MAb179 (prepared as described in Whitehom, E., A Generic Method for Expression and Use of “Tagged” Soluble Versions of Cell Surface Receptor, Biotechnolgy 1995, 13, 1215-1219) conjugated Packard Bioscience Alpha Screen acceptor beads per manufactures protocol, at 40 ug/mL, and human IL-5Rα extracellular domain harvest with a MAb 179 epitope tag prepared as previously described (England, B., A Potent Dimeric Peptide Antagonist of Interleukin-5 that Binds Two Interleukin-5 Receptor α Chains, PNAS, vol.97, no. 12, 6862-6867). Two microliters of beads and receptor harvest mixture were added to each assay well. Alpha Quest beads are light sensitive so all steps after the introduction of the beads were carried out under green lighting (lights adapted with Roscolux Chroma Green #389 filter sleeves which transmit <1% at 680 nm). After a 5-10 minute room temperature incubation, two microliters of 62.4 nM biotinylated MBP-AF12368, […] (SEQ ID NO 73), tracer peptide (prepared as described in Schatz P., Use of Peptide Libraries to Map the Substrate Specificity of a Peptide-Modifying Enzyme: A 13 Residue Consensus Peptide Specifies Biotinylation in Escherichia coli, Biotechnology 1993, 11, 1138-1143) diluted in assay buffer was added to each well. The assay plate was spun to 55 rpm in a plate centrifuge, sealed with Packard Top Seal, wrapped in foil and placed in a room temperature incubator in the instrument room. The plate was read after 16-20 hours using a Packard Bioscience Alpha Quest Discovery™ plate reader.
row,percent more potent than AF17121 (SEQ ID NO: 1),Molecule
1,~135%,Ac-VDECWRIIASHAWFCAEE-NH2 (disulfide 4-15 (inferred)) [AF35910 (Ac-Val Asp Glu Cys Trp Arg Ile Ile Ala Ser His Ala Trp Phe Cys Ala Glu Glu-NH2)]
2,~200%,Ac-VAECWRIIASHTWFCAEE-NH2 (disulfide 4-15 (inferred)) [AF35920 (Ac-Val Ala Glu Cys Trp Arg Ile Ile Ala Ser His Thr Trp Phe Cys Ala Glu Glu-NH2)]
3,~675%,Ac-VDACWRIIASHTWFCAEE-NH2 (disulfide 4-15 (inferred)) [AF35918 (Ac-Val Asp Ala Cys Trp Arg Ile Ile Ala Ser His Thr Trp Phe Cys Ala Glu Glu-NH2)]
4,~350%,Ac-ADECWRIIASHTWFCAEE-NH2 (disulfide 4-15 (inferred)) [AF35921 (Ac-Ala Asp Glu Cys Trp Arg Ile Ile Ala Ser His Thr Trp Phe Cys Ala Glu Glu-NH2)]
5,~450%,Ac-VDECWRIIAAHTWFCAEE-NH2 (disulfide 4-15 (inferred)) [AF35912 (Ac-Val Asp Glu Cys Trp Arg Ile Ile Ala Ala His Thr Trp Phe Cys Ala Glu Glu-NH2)]

# Molecular target: T2, human IL-5Rα extracellular domain
# Test: IL-5 receptor-ligand Alpha Quest binding assay (alanine scan of AF17121, FIG. 1)
# Settings: relative to parent monomer AF17121 (SEQ ID NO:1); single Ala substitution
# Experimental: The affinity of compounds for the IL-5 receptor was tested in a homogeneous Alpha Quest binding assay. The peptides tested were solubilized at approximately 10 mM in DMSO. Each peptide was then serially diluted into freshly made, sterile filtered assay buffer (40 mM Hepes, pH 7.4 with NaOH, containing 1 mM MgCl2, 0.1% BSA and 0.05% Tween-20). Four microliters of each test compound dilution was transferred in triplicate to a 384-well, low volume, white, polypropylene Griener plate (E&K Scientific #31075). A mixture was prepared in assay buffer containing Packard Bioscience AlphaScreen streptavidin coated donor beads at […], MAb179 (prepared as described in Whitehom, E., A Generic Method for Expression and Use of “Tagged” Soluble Versions of Cell Surface Receptor, Biotechnolgy 1995, 13, 1215-1219) conjugated Packard Bioscience Alpha Screen acceptor beads per manufactures protocol, at 40 ug/mL, and human IL-5Rα extracellular domain harvest with a MAb 179 epitope tag prepared as previously described (England, B., A Potent Dimeric Peptide Antagonist of Interleukin-5 that Binds Two Interleukin-5 Receptor α Chains, PNAS, vol.97, no. 12, 6862-6867). Two microliters of beads and receptor harvest mixture were added to each assay well. Alpha Quest beads are light sensitive so all steps after the introduction of the beads were carried out under green lighting (lights adapted with Roscolux Chroma Green #389 filter sleeves which transmit <1% at 680 nm). After a 5-10 minute room temperature incubation, two microliters of 62.4 nM biotinylated MBP-AF12368, GEVCTRDVANHRWMCGVD (SEQ ID NO 73), tracer peptide (prepared as described in Schatz P., Use of Peptide Libraries to Map the Substrate Specificity of a Peptide-Modifying Enzyme: A 13 Residue Consensus Peptide Specifies Biotinylation in Escherichia coli, Biotechnology 1993, 11, 1138-1143) diluted in assay buffer was added to each well. The assay plate was spun to 55 rpm in a plate centrifuge, sealed with Packard Top Seal, wrapped in foil and placed in a room temperature incubator in the instrument room. The plate was read after 16-20 hours using a Packard Bioscience Alpha Quest Discovery™ plate reader.
# Results for various compound embodiments of the invention are depicted in FIGS. 1-4 and 6-8.
row,more potent (peptide monomer with single alanine substitution),Molecule
1,about 350%,Ac-ADECWRIIASHTWFCAEE-NH2 (cysteine pairing not given here) [AF35921]
2,about 450%,Ac-VDECWRIIAAHTWFCAEE-NH2 (cysteine pairing not given here) [AF35912]
3,about 135%,Ac-VDECWRIIASHAWFCAEE-NH2 (cysteine pairing not given here) [AF35910]
4,about 200%,Ac-Val Ala Glu Cys Trp Arg Ile Ile Ala Ser His Thr Trp Phe Cys Ala Glu Glu-NH2 (Ac-VAECWRIIASHTWFCAEE-NH2; not fully specified (bridges); printed as Ac-Val Ala Glu Cys Trp Arg Ile Ile Ala Ser His Thr Trp Phe Cys Ala Glu Glu-NH2; cysteine pairing not given here) [AF35920]
5,about 675%,Ac-Val Asp Ala Cys Trp Arg Ile Ile Ala Ser His Thr Trp Phe Cys Ala Glu Glu-NH2 (Ac-VDACWRIIASHTWFCAEE-NH2; not fully specified (bridges); printed as Ac-Val Asp Ala Cys Trp Arg Ile Ile Ala Ser His Thr Trp Phe Cys Ala Glu Glu-NH2; cysteine pairing not given here) [AF35918]

# Molecular target: T3, human IL-5 receptor
# Test: not given
# Settings: high affinity IL-5 binding sites; HL60 subclone, eosinophilic differentiation initiated with sodium butyrate; cited from earlier work
row,Molecule,Kd
1,"IL-5: lymphokine secreted by T cells and mast cells, having biological activities on B cells and eosinophils",0.03 nM
